Test results: patent US20200140562A1 (Innovent, published 2020)

Key:
[1] = target: T1, human OX40 on cells (CHO-hOX40, 293HEK-hOX40, Jurkat-hOX40, activated primary CD4+ T cells) (human, UniProt P43489 29-277); assay: flow cytometry, CHO-hOX40, 0.390625 nM
T1 construct: whole, on cells; The cell type is told in each assay; also called CHO-OX40
T1 sequence (looked up): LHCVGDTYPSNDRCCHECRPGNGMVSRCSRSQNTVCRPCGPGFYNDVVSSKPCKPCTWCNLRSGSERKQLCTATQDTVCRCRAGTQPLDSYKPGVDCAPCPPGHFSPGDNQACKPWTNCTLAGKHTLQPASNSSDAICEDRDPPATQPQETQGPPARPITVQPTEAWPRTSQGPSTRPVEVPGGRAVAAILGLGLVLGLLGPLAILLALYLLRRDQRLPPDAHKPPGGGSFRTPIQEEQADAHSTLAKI

[2] = target: T1, human OX40 on cells (CHO-hOX40, …); assay: flow cytometry, CHO-hOX40, 3.125 nM
[3] = target: T1, human OX40 on cells (CHO-hOX40, …); assay: flow cytometry, CHO-hOX40, 200 nM
[4] = target: T1, human OX40 on cells (CHO-hOX40, …); assay: flow cytometry, CHO-hOX40, 25 nM
[5] = target: T1, human OX40 on cells (CHO-hOX40, …); assay: cell-based or functional assay
[6] = target: T1, human OX40 on cells (CHO-hOX40, …); assay: flow cytometry, CHO-hOX40, 0.09765625 nM
[7] = target: T1, human OX40 on cells (CHO-hOX40, …); assay: flow cytometry, CHO-hOX40, 0.1953125 nM
[8] = target: T1, human OX40 on cells (CHO-hOX40, …); assay: flow cytometry, CHO-hOX40, 1.5625 nM
[9] = target: T1, human OX40 on cells (CHO-hOX40, …); assay: flow cytometry, CHO-hOX40, 0.024414063 nM
[10] = target: T1, human OX40 on cells (CHO-hOX40, …); assay: flow cytometry, CHO-hOX40, 100 nM
[11] = target: T1, human OX40 on cells (CHO-hOX40, …); assay: flow cytometry, CHO-hOX40, 6.25 nM
[12] = target: T1, human OX40 on cells (CHO-hOX40, …); assay: flow cytometry, CHO-hOX40, 0.78125 nM
[13] = target: T1, human OX40 on cells (CHO-hOX40, …); assay: flow cytometry, CHO-hOX40, 6.25 nM; remark: listed apart in the source

B1: OX40L (control reagent; recombinant OX40L, Acro Biosystems) (ligand, UniProt P23510 51-183, looked up)
chain: QVSHRYPRIQSIKVQFTEYKKEKGFILTSQKEDEIMKVQNNSVIINCDGFYLISLKGYFSQEVNISLHYQKDEEPLFQLKKVRSVNSLMVASLTYKDKVYLNVTTDNTSLDDFHVNGGELILIHQNPGEFCVL
notes: may be the same reagent as OX40L-hFc
MFI [1]: 119000 MFI
MFI [2]: 932000 MFI
MFI [3]: 2.08e+06 MFI
MFI [4]: 2.8e+06 MFI
NFkB-Luc fold change in Jurkat stimulated by PHA+ anti-CD28 [5]: 4.82 fold over IgG4 control
NFkB-Luc fold change in Jurkat stimulated by anti-CD3+ anti-CD28 [5]: 4.05 fold over IgG4 control
MFI [6]: 14500 MFI
MFI [7]: 83200 MFI
MFI [8]: 172000 MFI
MFI [9]: 12800 MFI
MFI [10]: 2.57e+06 MFI
MFI [11]: 1.48e+06 MFI
MFI [12]: 86000 MFI
MFI [13]: 600000 MFI
